Laboratory results: US20040072188A1 (Biogen, published 2004)

Tests used:
[1] = target: T1, human TACI, full length, on transfected 293EBNA cells (CA336) (human, UniProt O14836 1-293); test: FACS on 293EBNA cells co-transfected with human TACI and GFP, 1 ug/ml myc-APRIL
T1 construct: whole, on cells; also called huTACI
T1 sequence (looked up): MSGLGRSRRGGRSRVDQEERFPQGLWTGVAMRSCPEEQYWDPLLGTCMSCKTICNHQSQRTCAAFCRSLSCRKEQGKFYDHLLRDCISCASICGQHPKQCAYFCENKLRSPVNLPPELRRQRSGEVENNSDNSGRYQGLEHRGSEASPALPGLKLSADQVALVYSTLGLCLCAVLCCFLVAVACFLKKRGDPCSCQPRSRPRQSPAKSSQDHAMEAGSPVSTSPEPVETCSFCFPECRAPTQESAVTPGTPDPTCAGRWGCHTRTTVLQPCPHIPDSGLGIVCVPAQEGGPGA
Description: (§1) At 18-20 hr post-transfection, cells were detached, counted, and stained for FACS analysis similar to Example 5 with the following modifications. […] The cells were again washed, fixed with paraformaldehyde, and analyzed by FACS for GFP and PE positive cells.

[2] = target: T2, human BAFF-R (JST576), full length, on cells (human, UniProt Q96RJ3 1-184); test: FACS on 293EBNA cells co-transfected with pJST576 and GFP reporter; anti-murine APRIL mAb, biotinylated anti-rat IgG2b, SAV-PE
T2 construct: also called pJST576 transfected cells; huBAFF-R
T2 sequence: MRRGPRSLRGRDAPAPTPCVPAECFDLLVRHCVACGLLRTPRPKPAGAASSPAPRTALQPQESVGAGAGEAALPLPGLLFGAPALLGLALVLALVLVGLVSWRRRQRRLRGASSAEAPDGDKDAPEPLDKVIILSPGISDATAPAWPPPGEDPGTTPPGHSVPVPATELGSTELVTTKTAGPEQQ
Description: as §1

B1: murine recombinant soluble myc-APRIL (ligand, UniProt Q9D777 96-241, looked up)
chain: AVLTQKHKKKHSVLHLVPVNITSKADSDVTEVMWQPVLRRGRGLEAQGDIVRVWDTGIYLLYSQVLFHDVTFTMGQVVSREGQGRRETLFRCIRSMPSDPDRAYNSCYSAGVFHLHQGDIITVKIPRANAKLSLSPHGTFLGFVKL
notes: also called myc-muAPRIL; murine myc-APRIL; not shown: myc tag
B1: binds [1]; no binding (tested: 1 ug/ml) [2].
